Patent US20100129369A1 (Eli Lilly, published 2010)
Substitutions are numbered along the chain they refer to. Blank lines part the entries; values can stand above or below the binder they belong to.

Legend:
human c-Met [1] = target: T1, human c-Met (human, UniProt P08581 25-1390); experiment: cell-based or functional assay
human c-Met [2] = target: T1, human c-Met; experiment: cell-based or functional assay; remark: listed apart in the source
human c-Met [3] = target: T1, human c-Met; experiment: cell-based or functional assay; remark: listed apart in the source
human c-Met ECD-Fc-Flis [4] = target: T2, human c-Met ECD-Fc-Flis (human); experiment: HGF-blocking ELISA: HGF signal on coated c-Met ECD-Fc-Flis; Ab 0.48 ng/mL
T2 construct: c-Met ECD fused to Fc with flag- and His-tag at the C-terminus; also called human c-Met extracellular domain (ECD)-Fc-Flis fusion; human c-Met-Flis-Fc ECD
Method: (§1) Wells of 96-well EIA/RIA high binding plates (Costar, #2592) are coated with 100 μL of human c-Met ECD-Fc-Flis (SEQ ID NO:72) (2 μg/mL) in Dulbecco's phosphate buffered saline (DPBS) overnight at room temperature; washed four times with wash buffer (Tris-buffered saline, pH 8.0, with 0.05% (v/v) polysorbate 20 (TWEEN®-20) (TBS-T) (BioFX Labs, # WSHW-1000-01) in a plate washer; blocked by adding 300 μL of blocking buffer (TBS-T plus 1% (w/v) bovine serum albumin (BSA) (Jackson Immuno, #001-000-162); and incubating for 60 min. at 37° C. Blocking buffer is then removed from the wells and 50 μL of antibodies in blocking buffer at final concentrations as indicated in Table 7 are added into each well, respectively. […] The plates with c-Met antibodies are incubated for 90 min. at 37° C. […] The wells are then washed four times with TBS-T in a plate washer. […] The plates are incubated for 90 min. at room temperature. The wells are again washed four times with TBS-T in a plate washer. 100 μL of a 1:200 dilution of streptavidin-horseradish peroxidase (HRP) (R&D Systems, DY998) in blocking buffer are added to each well. The plates are incubated for 30 min. at room temperature. The wells are washed four times with TBS-T in a plate washer. 100 μL/well of substrate solution (BioFx, #TMBW-1000-01) are then added, and the plates are incubated for 10 min. at room temperature. To stop the reaction, 100 μL/well of stop solution (BioFx, # LSTP-1000-01) are added. The samples are read at a wavelength of 450-570 nm on a microplate reader (Spectra, MAX 190) and no background is subtracted.

human c-Met ECD-Fc-Flis [5] = target: T2, human c-Met ECD-Fc-Flis; experiment: HGF-blocking ELISA: HGF signal on coated c-Met ECD-Fc-Flis; Ab 1.91 ng/mL
Method: as §1

human c-Met ECD-Fc-Flis [6] = target: T2, human c-Met ECD-Fc-Flis; experiment: HGF-blocking ELISA: HGF signal on coated c-Met ECD-Fc-Flis; Ab 7.63 ng/mL
Method: as §1

human c-Met ECD-Fc-Flis [7] = target: T2, human c-Met ECD-Fc-Flis; experiment: HGF-blocking ELISA: HGF signal on coated c-Met ECD-Fc-Flis; Ab 30.52 ng/mL
Method: as §1

human c-Met ECD-Fc-Flis [8] = target: T2, human c-Met ECD-Fc-Flis; experiment: HGF-blocking ELISA: HGF signal on coated c-Met ECD-Fc-Flis; Ab 122.07 ng/mL
Method: as §1

human c-Met ECD-Fc-Flis [9] = target: T2, human c-Met ECD-Fc-Flis; experiment: HGF-blocking ELISA: HGF signal on coated c-Met ECD-Fc-Flis; Ab 488.28 ng/mL
Method: as §1

human c-Met ECD-Fc-Flis [10] = target: T2, human c-Met ECD-Fc-Flis; experiment: HGF-blocking ELISA: HGF signal on coated c-Met ECD-Fc-Flis; Ab 1953.13 ng/mL
Method: as §1

human c-Met ECD-Fc-Flis [11] = target: T2, human c-Met ECD-Fc-Flis; experiment: HGF-blocking ELISA: HGF signal on coated c-Met ECD-Fc-Flis; Ab 7812.50 ng/mL
Method: as §1

human c-Met ECD-Fc-Flis [12] = target: T2, human c-Met ECD-Fc-Flis; experiment: HGF-blocking ELISA: HGF signal on coated c-Met ECD-Fc-Flis; Ab 31250.00 ng/mL
Method: as §1

human c-Met ECD-Fc-Flis [13] = target: T2, human c-Met ECD-Fc-Flis; experiment: HGF-blocking ELISA: HGF signal on coated c-Met ECD-Fc-Flis; Ab 125000.00 ng/mL
Method: as §1

human c-Met ECD-Fc-Flis [14] = target: T2, human c-Met ECD-Fc-Flis; experiment: HGF-blocking ELISA: HGF signal on coated c-Met ECD-Fc-Flis; Ab 0.00 ng/mL (HGF only)
Method: as §1

T1 sequence (P08581 25-1390): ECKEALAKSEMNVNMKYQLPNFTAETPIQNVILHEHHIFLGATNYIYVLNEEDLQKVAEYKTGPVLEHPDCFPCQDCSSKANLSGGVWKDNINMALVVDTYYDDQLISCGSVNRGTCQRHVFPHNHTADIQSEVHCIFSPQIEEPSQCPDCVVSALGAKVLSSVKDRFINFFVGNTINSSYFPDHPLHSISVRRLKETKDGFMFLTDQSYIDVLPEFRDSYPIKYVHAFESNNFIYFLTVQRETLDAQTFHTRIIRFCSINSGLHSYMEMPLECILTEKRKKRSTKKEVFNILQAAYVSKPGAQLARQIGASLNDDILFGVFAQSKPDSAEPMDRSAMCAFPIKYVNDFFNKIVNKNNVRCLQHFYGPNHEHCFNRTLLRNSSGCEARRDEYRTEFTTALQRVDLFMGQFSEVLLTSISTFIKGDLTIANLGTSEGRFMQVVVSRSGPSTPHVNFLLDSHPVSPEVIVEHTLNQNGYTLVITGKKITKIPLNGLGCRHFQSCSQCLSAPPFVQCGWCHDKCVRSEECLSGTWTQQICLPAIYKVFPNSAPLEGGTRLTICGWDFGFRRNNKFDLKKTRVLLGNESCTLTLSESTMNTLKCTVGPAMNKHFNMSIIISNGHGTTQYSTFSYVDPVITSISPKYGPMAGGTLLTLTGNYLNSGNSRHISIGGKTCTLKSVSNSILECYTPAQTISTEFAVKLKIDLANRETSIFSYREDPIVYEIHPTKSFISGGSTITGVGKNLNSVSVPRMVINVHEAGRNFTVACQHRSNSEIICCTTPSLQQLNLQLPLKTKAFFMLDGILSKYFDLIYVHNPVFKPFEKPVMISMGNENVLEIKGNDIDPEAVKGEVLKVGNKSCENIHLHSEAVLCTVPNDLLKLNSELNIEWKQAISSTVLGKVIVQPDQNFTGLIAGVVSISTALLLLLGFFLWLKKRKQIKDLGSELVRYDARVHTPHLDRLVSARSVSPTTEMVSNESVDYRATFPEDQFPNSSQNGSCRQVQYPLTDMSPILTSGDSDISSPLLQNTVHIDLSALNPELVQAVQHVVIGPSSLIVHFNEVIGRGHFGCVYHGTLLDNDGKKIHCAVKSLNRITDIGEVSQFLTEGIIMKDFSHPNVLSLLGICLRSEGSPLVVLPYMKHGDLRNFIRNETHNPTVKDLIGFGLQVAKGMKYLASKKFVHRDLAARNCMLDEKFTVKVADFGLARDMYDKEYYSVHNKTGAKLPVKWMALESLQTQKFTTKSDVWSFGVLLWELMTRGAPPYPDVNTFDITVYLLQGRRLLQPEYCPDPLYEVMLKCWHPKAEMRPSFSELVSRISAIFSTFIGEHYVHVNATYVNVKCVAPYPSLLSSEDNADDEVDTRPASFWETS
T2 sequence (chain, as listed by the source): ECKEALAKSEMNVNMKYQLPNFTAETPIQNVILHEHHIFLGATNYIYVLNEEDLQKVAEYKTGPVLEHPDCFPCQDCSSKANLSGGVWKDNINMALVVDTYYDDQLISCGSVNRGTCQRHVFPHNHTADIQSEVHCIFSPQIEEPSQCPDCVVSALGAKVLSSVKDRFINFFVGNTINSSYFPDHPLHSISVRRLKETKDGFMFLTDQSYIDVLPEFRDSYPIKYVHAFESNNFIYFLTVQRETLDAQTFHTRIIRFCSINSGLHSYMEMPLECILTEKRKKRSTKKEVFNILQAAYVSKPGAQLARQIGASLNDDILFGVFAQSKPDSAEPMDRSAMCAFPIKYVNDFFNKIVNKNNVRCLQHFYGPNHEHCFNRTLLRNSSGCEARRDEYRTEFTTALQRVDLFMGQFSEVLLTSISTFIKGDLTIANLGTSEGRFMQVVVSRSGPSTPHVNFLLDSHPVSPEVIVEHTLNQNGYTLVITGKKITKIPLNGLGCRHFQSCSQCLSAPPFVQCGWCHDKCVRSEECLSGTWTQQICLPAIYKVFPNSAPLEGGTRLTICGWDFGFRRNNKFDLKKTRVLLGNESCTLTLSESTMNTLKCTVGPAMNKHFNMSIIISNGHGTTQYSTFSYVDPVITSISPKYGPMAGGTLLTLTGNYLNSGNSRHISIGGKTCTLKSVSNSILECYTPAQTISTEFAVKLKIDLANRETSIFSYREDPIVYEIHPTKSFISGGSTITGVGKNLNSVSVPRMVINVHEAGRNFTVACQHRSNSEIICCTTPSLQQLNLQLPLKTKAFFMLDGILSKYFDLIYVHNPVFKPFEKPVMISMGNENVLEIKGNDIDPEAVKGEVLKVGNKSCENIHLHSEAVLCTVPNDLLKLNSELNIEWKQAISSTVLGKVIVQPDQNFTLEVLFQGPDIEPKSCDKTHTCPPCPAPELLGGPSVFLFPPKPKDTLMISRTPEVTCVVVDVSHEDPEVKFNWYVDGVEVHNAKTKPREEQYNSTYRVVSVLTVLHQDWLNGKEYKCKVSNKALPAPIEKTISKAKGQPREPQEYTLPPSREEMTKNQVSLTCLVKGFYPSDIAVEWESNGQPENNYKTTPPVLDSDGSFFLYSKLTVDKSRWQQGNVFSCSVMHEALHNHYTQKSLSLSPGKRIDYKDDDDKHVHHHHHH

- % inhibition of HGF stimulated phospho-Met (ELISA, HCT116 cells), Ab 0.0032 µg/mL (human c-Met [1]): -10.4%
- % inhibition of HGF stimulated phospho-Met (ELISA, HCT116 cells), Ab 0.016 µg/mL (human c-Met [1]): -6.68%
- % inhibition of HGF stimulated phospho-Met (ELISA, HCT116 cells), Ab 0.08 µg/mL (human c-Met [1]): 10.5%
- % inhibition of HGF stimulated phospho-Met (ELISA, HCT116 cells), Ab 0.4 µg/mL (human c-Met [1]): 35%
- % inhibition of HGF stimulated phospho-Met (ELISA, HCT116 cells), Ab 2 µg/mL (human c-Met [1]): 40.7%
- % inhibition of HGF stimulated phospho-Met (ELISA, HCT116 cells), Ab 10 µg/mL (human c-Met [1]): 19.6%
- Mean Fluorescence (c-Met left on the surface of MKN45 cells, FACS), Ab 5.00 ug/mL (human c-Met [2]): 44.7
- AVG CPM, 3H-thymidine incorporation in MKN45 cells, Ab 0.0 ng/mL (no antibody) (human c-Met [3]): 50400 CPM
- AVG CPM, 3H-thymidine incorporation in MKN45 cells, Ab 0.1 ng/mL (human c-Met [3]): 41600 CPM
- AVG CPM, 3H-thymidine incorporation in MKN45 cells, Ab 0.4 ng/mL (human c-Met [3]): 43300 CPM
- AVG CPM, 3H-thymidine incorporation in MKN45 cells, Ab 2.6 ng/mL (human c-Met [3]): 44700 CPM
- AVG CPM, 3H-thymidine incorporation in MKN45 cells, Ab 15.4 ng/mL (human c-Met [3]): 24400 CPM
- AVG CPM, 3H-thymidine incorporation in MKN45 cells, Ab 92.6 ng/mL (human c-Met [3]): 11100 CPM
- AVG CPM, 3H-thymidine incorporation in MKN45 cells, Ab 555.6 ng/mL (human c-Met [3]): 11900 CPM
- AVG CPM, 3H-thymidine incorporation in MKN45 cells, Ab 3333.3 ng/mL (human c-Met [3]): 11400 CPM
- AVG CPM, 3H-thymidine incorporation in MKN45 cells, Ab 20000.0 ng/mL (human c-Met [3]): 11200 CPM
- AVG A450 nm (human c-Met ECD-Fc-Flis [4]): 2.51 A450 nm
- AVG A450 nm (human c-Met ECD-Fc-Flis [5]): 2.48 A450 nm
- AVG A450 nm (human c-Met ECD-Fc-Flis [6]): 2.41 A450 nm
- AVG A450 nm (human c-Met ECD-Fc-Flis [7]): 2.32 A450 nm
- AVG A450 nm (human c-Met ECD-Fc-Flis [8]): 1.92 A450 nm
- AVG A450 nm (human c-Met ECD-Fc-Flis [9]): 1.3 A450 nm
- AVG A450 nm (human c-Met ECD-Fc-Flis [10]): 1.43 A450 nm
- AVG A450 nm (human c-Met ECD-Fc-Flis [11]): 1.24 A450 nm
- AVG A450 nm (human c-Met ECD-Fc-Flis [12]): 1.31 A450 nm
- AVG A450 nm (human c-Met ECD-Fc-Flis [13]): 1.38 A450 nm
- AVG A450 nm (human c-Met ECD-Fc-Flis [14]): 2.43 A450 nm
B1: D11-8B8 (antibody, human IgG2, kappa, V domains shown)
VH: QVQLVQSGAEVKKPGSSVKVSCKASGYTFTSRYIHWVRQAPGQGLEWMGWIYPVTGDTYYIEKFKGRVTITADKSTSTAYMELSSLRSEDTAVYYCARGYGAFFYWGQGTLVTVSS
VL: EIVLTQSPGTLSLSPGERATLSCSVSSSISSTNLHWYQQKPGQAPRLLIYGTSYLASGIPDRFSGSGSGTDFTLTISRLEPEDFAVYYCQQWSSYPYSFGQGTKLEIKR
notes: Human engineered IgG2 kappa c-Met antibody; also called Mab D11-8B8; D11-8B8 IgG2

- % inhibition of HGF stimulated phospho-Met (ELISA, HCT116 cells), Ab 0.0032 µg/mL (human c-Met [1]): 9.72%
- % inhibition of HGF stimulated phospho-Met (ELISA, HCT116 cells), Ab 0.016 µg/mL (human c-Met [1]): 5.73%
- % inhibition of HGF stimulated phospho-Met (ELISA, HCT116 cells), Ab 0.08 µg/mL (human c-Met [1]): 20.8%
- % inhibition of HGF stimulated phospho-Met (ELISA, HCT116 cells), Ab 0.4 µg/mL (human c-Met [1]): 38.1%
- % inhibition of HGF stimulated phospho-Met (ELISA, HCT116 cells), Ab 2 µg/mL (human c-Met [1]): 31.8%
- % inhibition of HGF stimulated phospho-Met (ELISA, HCT116 cells), Ab 10 µg/mL (human c-Met [1]): 1.25%
- Mean Fluorescence (c-Met left on the surface of MKN45 cells, FACS), Ab 5.00 ug/mL (human c-Met [2]): 51.1
- AVG CPM, 3H-thymidine incorporation in MKN45 cells, Ab 0.0 ng/mL (no antibody) (human c-Met [3]): 44200 CPM
- AVG CPM, 3H-thymidine incorporation in MKN45 cells, Ab 0.1 ng/mL (human c-Met [3]): 41500 CPM
- AVG CPM, 3H-thymidine incorporation in MKN45 cells, Ab 0.4 ng/mL (human c-Met [3]): 44000 CPM
- AVG CPM, 3H-thymidine incorporation in MKN45 cells, Ab 2.6 ng/mL (human c-Met [3]): 47000 CPM
- AVG CPM, 3H-thymidine incorporation in MKN45 cells, Ab 15.4 ng/mL (human c-Met [3]): 28700 CPM
- AVG CPM, 3H-thymidine incorporation in MKN45 cells, Ab 92.6 ng/mL (human c-Met [3]): 14600 CPM
- AVG CPM, 3H-thymidine incorporation in MKN45 cells, Ab 555.6 ng/mL (human c-Met [3]): 16000 CPM
- AVG CPM, 3H-thymidine incorporation in MKN45 cells, Ab 3333.3 ng/mL (human c-Met [3]): 16900 CPM
- AVG CPM, 3H-thymidine incorporation in MKN45 cells, Ab 20000.0 ng/mL (human c-Met [3]): 18400 CPM
- AVG A450 nm (human c-Met ECD-Fc-Flis [4]): 2.37 A450 nm
- AVG A450 nm (human c-Met ECD-Fc-Flis [5]): 2.31 A450 nm
- AVG A450 nm (human c-Met ECD-Fc-Flis [6]): 2.27 A450 nm
- AVG A450 nm (human c-Met ECD-Fc-Flis [7]): 2.38 A450 nm
- AVG A450 nm (human c-Met ECD-Fc-Flis [8]): 1.6 A450 nm
- AVG A450 nm (human c-Met ECD-Fc-Flis [9]): 0.94 A450 nm
- AVG A450 nm (human c-Met ECD-Fc-Flis [10]): 0.97 A450 nm
- AVG A450 nm (human c-Met ECD-Fc-Flis [11]): 0.91 A450 nm
- AVG A450 nm (human c-Met ECD-Fc-Flis [12]): 0.94 A450 nm
- AVG A450 nm (human c-Met ECD-Fc-Flis [13]): 0.89 A450 nm
- AVG A450 nm (human c-Met ECD-Fc-Flis [14]): 2.43 A450 nm
B2: D11-C27G3 (antibody, human IgG2, kappa, V domains shown)
VH: B1 VH with I61R, K63P, F104Y
VL: B1 VL with Y54R, A56R
notes: Human engineered IgG2 kappa c-Met antibody; also called D11-27G3; D11-C27G3 IgG2
